Laboratory results as given in patent US20100272689A1, “Protease Having Algicidal Activity, Gene Encoding the Same and Algicidal Formulation Comprising the Same” (KOREA OCEAN RESEARCH & DEVELOPMENT INSTITUTE, priority 2007, published 2010).
Where “and” joins values, the source holds several entries; their conditions need not be identical. Equal values may be shown once.

B1: 10476—7: protein containing only mature protein, without signal peptide and processing peptide (protein, listed as Kordia algicida)
chain: QYRTNNLVSPGVITIIGYTGNNSNGLTTKMQTGLRWAVDNYNALNLSISFQLTFGTDYQNKDMVVYQVQGGAGGSAGFPSGGNPYKWVKINSGMAPYSNNVHEHVIGHEIGHSIGFRHSDYFSRQSCGQNSNEGSAGVGAIHIPGTPTGWDPTSLMNACFSSSEDGEFNGNDITALNFLY
modifications: KAOT1_10476 of Kordia algicida OT-1 lacking signal and processing peptide
B2: 10476—8: protein containing processing peptide and mature protein, without the signal peptide part (protein, listed as Kordia algicida)
chain: VVDEEQDTAIGIPQDVLQKAQSLHFNTFDMQEASFEKPNGKIEEGYMMEGDIFFTRDQLMNMELGGDITSKQYRTNNLVSPGVITIIGYTGNNSNGLTTKMQTGLRWAVDNYNALNLSISFQLTFGTDYQNKDMVVYQVQGGAGGSAGFPSGGNPYKWVKINSGMAPYSNNVHEHVIGHEIGHSIGFRHSDYFSRQSCGQNSNEGSAGVGAIHIPGTPTGWDPTSLMNACFSSSEDGEFNGNDITALNFLY
modifications: KAOT1_10476 of Kordia algicida OT-1 lacking signal peptide
notes: protein containing processing peptide and mature protein, without the signal peptide part

What was measured:
gelatin [1] = test: Protease activity by electrophoresis on gelatin substrate gel; assay type: biochemical; details: refolded protein, FIG. 7
Experimental: Protease activity of proteases obtained according to Example 6 was measured using electrophoresis on gelatin substrate gel [Park, H. I., J. Biol. Chem., 275:20540-20544, 2000].

gelatin [2] = test: Protease activity at various temperature and pH; assay type: biochemical
Experimental: 10476—7 protein (SEQ ID NO: 27) containing only mature protein was suspended with SDS in combination with stabilization by using EDTA and resistance to detergent, and refolded by dilution using buffer solution containing 50 mM Tris-HCl, 1 mM EDTA and 1% triton X-100 except SDS, and then protease activity was measured at various temperature and pH according to the method as described above [Park, H. I., J. Biol. Chem., 275:20540-20544, 2000]. The results are shown in FIG. 9 and FIG. 10, respectively.

gelatin [3] = test: Protease activity with zinc or calcium ion (gelatin, TCA supernatant); assay type: biochemical; details: 0.1% gelatin, pH 8.0, 20° C., 2 hr
Experimental: Also, 5 μg of refolded protein was added to buffer solution containing 0.1% gelatin, 50 mM Tris-HCl (pH 8.0), 100 mM KCl and 1 mM zinc or calcium ion, incubated at 20° C. for 2 hr, and then 5% TCA solution (w/v) was added to the solution, followed by stand for 10 min on ice. After centrifugation for 5 min at 10,000 rpm, the protein was measured using the supernatant. Inhibition of protease activity by metal ions was measured by comparing with control group without metal ion.

[4] = tested on: Cochlodinium polykrikoides; test: Algicidal activity by cell count after 24 hr (Lugol staining); assay type: cell-based; details: 50 μl of protein (100 μg/ml), after 24 hr; for Cell number: ( ): standard deviation
Experimental: Organisms used as host for algicidal bacteria screen are Cochlodinium polykrikoides, Thalassiosira sp., Heterosigma akashiwo, Skeletonema costatum, Alexandrium sp., Gymnodium sp., Chaetoceros cuvisetus. Each algae cell was grown to log phase in F/2 broth (0.075 g NaNO3, 0.005 g NaH2PO4?H2O, 0.030 g Na2SiO3?9H2O, 1 ml F/2 trace metal solution, 1 ml F/2 vitamin solution and 1,000 ml aged seawater) [Stein, Handbook of phycological methods, Cambridge Univ. Press, 1973].
The cultured red tide organisms were diluted in F/2 broth to a final density of 0.05 (excitation wavelength=434 nm, emission wavelength=670 nm)on the fluorescent intensity using fluoro-spectrophotometer (Hitachi, Japan), and then 2.7 ml aliquots were dispensed into several test tubes (110 mm×10 mm) to prepare for the MPN (most probable number) method.
To measure algicidal activity of 10476—7 protein (SEQ ID NO:27), 50 μl of said protein (100 μg/ml) was added to the culture solutions of Cochlodinium polykrikoides, Thalassiosira sp., Heterosigma akashiwo, Skeletonema costatum, Alexandrium sp., Chaetoceros cuvisetus and Gymnodniium sp. which were prepared in Example 2. After 24 hr, said culture solutions were stained with 1% Lugol's iodine solution, and then the cell number was counted. Experimental groups with protease (experimental group 1 and 2) were compared with control group without protease in cell number and the degree of inhibition.
To check algicidal activity of proteins isolated Flavobacterium johnsoniae UW101 (ZP—01247095, SEQ ID NO: 4), Croceibacter atlanticus HTCC2559 (ZP—00951344, SEQ ID NO: 5), Leeuwenhoekiella blandensis MED217 (ZP—01059780, SEQ ID NO: 6) and Kordia algicida KAOT1—11562 (SEQ ID NO: 7), 50 μl of said protein (100 μg/ml) was added to the culture solutions of Cochlodinium polykrikoides, Thalassiosira sp., Heterosigma akashiwo, Skeletonema costatum, Alexandrium sp., Chaetoceros cuvisetus, and Gymnodium sp., which were prepared in Example 2. After 24 hr, said culture solutions were stained with 1% Lugol's iodine solution, and then the cell number was counted.
Experimental groups with protease (experimental group 1 and 2) were compared with control group without protease in cell number and the degree of inhibition.

[5] = Experimental: To observe protein processing of the protease having algicidal activity according to the present invention, analysis of protease activity was performed as the same method of Example 7 except 10476—8 protein (SEQ ID NO: 26) which was reacted at 4° C. for a week, and then that was confirmed by SDS-PAGE (FIG. 8).

Molecule | Protease activity (gelatin [1]) | Temperature of optimal protease activity (gelatin [2]; FIG. 9) | pH of optimal protease activity (gelatin [2]; FIG. 10) | Effect of zinc ion on protease activity (gelatin [3]; FIG. 11) | Calcium ion concentration of maximal protease activity (gelatin [3]; FIG. 12) [mM] | The degree of inhibition (%) ([4]; experimental group 1) | Cell number ([4]; experimental group 1) | The degree of inhibition (%) ([4]; experimental group 2) | Cell number ([4]; experimental group 2) | Time until turned into mature protease by degradation of processing peptide [5] [days]
B1 | showed protease activity | about 20 °C | 7-8 | inhibition of 10476—7 protein activity by zinc ion was confirmed | 80 to 100 | 40.7 | 960(30) cell/ml and 940(60) cell/ml | 30.0 | 1040(90) cell/ml and 900(110) cell/ml | 
B2 | showed protease activity |  |  |  |  |  |  |  |  | 3
